Data from publication PMC3708727 (Molecular Biology of the Cell, 2013).
Values belong to the binder of their own block, whether it stands above or below them.

What was measured:
[1] = biological target: rabbit muscle actin filaments (rabbit, UniProt P68135 1-377); assay: co-sedimentation
[2] = biological target: T1, histidine (His)-tagged full-length dAbp1 (Dictyostelium discoideum, UniProt Q557J6 1-481); assay: pull-down
T1 sequence (looked up): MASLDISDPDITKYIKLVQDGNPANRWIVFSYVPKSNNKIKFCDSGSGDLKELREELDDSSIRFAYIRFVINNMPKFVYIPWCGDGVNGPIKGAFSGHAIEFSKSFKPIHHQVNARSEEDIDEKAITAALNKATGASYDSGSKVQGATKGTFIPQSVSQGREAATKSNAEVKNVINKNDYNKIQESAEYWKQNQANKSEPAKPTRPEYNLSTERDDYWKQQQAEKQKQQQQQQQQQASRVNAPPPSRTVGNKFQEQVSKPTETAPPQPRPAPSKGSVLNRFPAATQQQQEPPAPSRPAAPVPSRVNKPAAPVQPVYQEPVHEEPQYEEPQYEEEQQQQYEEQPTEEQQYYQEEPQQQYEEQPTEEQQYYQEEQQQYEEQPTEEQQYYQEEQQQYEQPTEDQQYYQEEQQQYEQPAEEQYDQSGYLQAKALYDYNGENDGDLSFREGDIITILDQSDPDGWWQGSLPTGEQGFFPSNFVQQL

[3] = biological target: T2, His-tagged dAbp1-237-313 fragment (Dictyostelium discoideum, UniProt Q557J6 237-313); assay: pull-down
T2 sequence (looked up): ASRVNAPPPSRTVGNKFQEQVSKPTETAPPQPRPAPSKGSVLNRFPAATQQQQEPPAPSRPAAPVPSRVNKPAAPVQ

Kd in the presence of an equimolar amount of GST-PakB-1-120 [1]: 1100 ± 400 nM
B1: GST-dAbp1 (natural protein)
chain: T1 sequence (looked up)

binding result [2]: binds
binding result [3]: binds
B2: GST-dAbp1-SH3 domain fusion protein (domain or fragment, Dictyostelium discoideum, UniProt Q557J6 426-481, looked up)
chain: QAKALYDYNGENDGDLSFREGDIITILDQSDPDGWWQGSLPTGEQGFFPSNFVQQL
